The target in one experiment is CD25 ectodomain (UniProt P01589).
In a further experiment the target is T1, γc ectodomain (human, UniProt P31785 23-262, C-terminally biotinylated (staining reagent for yeast)).
T1 sequence: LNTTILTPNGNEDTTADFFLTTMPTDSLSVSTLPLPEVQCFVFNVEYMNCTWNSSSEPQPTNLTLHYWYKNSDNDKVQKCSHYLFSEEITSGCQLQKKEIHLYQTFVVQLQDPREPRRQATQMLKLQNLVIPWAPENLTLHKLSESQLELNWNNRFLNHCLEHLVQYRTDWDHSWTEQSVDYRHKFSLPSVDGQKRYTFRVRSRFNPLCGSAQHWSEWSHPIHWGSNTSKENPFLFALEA
In words: crystal structure.

As a reminder, the Kd is the concentration at which binding is half-saturated.

Sequence of CD25 ectodomain (P01589 22-240): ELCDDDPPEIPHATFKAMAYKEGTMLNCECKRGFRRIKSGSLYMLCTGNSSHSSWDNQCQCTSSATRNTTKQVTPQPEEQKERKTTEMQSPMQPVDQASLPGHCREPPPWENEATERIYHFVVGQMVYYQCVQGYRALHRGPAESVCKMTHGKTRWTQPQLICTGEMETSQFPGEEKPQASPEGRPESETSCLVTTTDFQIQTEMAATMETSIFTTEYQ

As for “H9 F42A (from UniProt P60568 21-153) (designed binder)”, in the experiment with CD25 ectodomain, the Kd amounted to 1400 nM.

Turning to “H9 super-2 (IL-2 superkine, second generation) (from UniProt P60568 21-153) (designed binder)”, the Kd with CD25 ectodomain turned out to be 6.6 nM.

B1: IL-2Rβ ectodomain (receptor)
chain: AVNGTSQFTCFYNSRANISCVWSQDGALQDTSCQVHAWPDRRRWNQTCELLPVSQASWACNLILGAPDSQKLTTVDIVTLRVLCREGVRWRVMAIQDFKPFENLRLMAPISLQVVHVETHRCNISWEISQASHYFERHLEFEARTLSPGHTWEEAPLLTLKQKQEWICLETLTPDTQYEFQVRVKPLQGEFTTWSPWSQPLAFRTKPAALGKDT
modifications: C-terminally biotinylated (staining reagent for yeast)
Consider B1, for which, in the experiment with γc ectodomain, the binding result is on record as “binds”.
